Test: yeast display, Sf9 membrane polyspecificity reagent, FACS + sequencing; frameworks hold sequencing errors
Procedure, shortened: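 In a synthetic yeast display library (Saccharomyces cerevisiae BJ5465), nanobody expression was induced with galactose for 36–48 hours. FACS gates were set low and high (top ~1%) using anti-HA fluorescence for expression and streptavidin fluorescence for binding of the Sf9 membrane reagent. Each polyreactivity label is drawn from the gate of origin.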

Row | Sequence | polyreactivity (PSR sort gate)
1 | QVQLVESGGGLVQAGGSLRLSCAASGSIFVQYAMGWYRQAPGKERELVATISSSGGSTYYADSVKGRFTISRDNAKNTVYLQMNRLKPEDTAVYYCAADWTLDPSYGYYADDYWGQGTQVTVSS | low polyreactivity
2 | QVQLVESGGGLVQAGGSLRLSCAASGSIFVRNAMGWYRQAPGKERELVAAISWRGGSTYYADSVKGRFTISRDNAKNTVYLQMNSLKPEDTAGYYCAARRWSPRSGLGYGYWGQGTQVTVSS | high polyreactivity
3 | QVQLVESGGGLVQAGGSLRLSCAASGSIFVRNAMGWYRQAPGKERELVAGISASGGSTYYADSVKGRFTISRDNAKNTVYLQMNSLKPEDTAVYYCANKVSTRFARYRYDYWGQGTQVTVSS | high polyreactivity
4 | QVQLVESGGGLVQAGGSLRLSCAASGSIFVRNGMGWYRQAPGKERELVASFTSGTITYYADSVKGRFTISRDNARNTVYLQMNRLKPDDTAVYYCAARRDRGRVKFYYWGQGTQVTVSS | high polyreactivity
5 | QVQLVESGGGLVQAGGSLRLSCAASGSIFVRNTMGWYRQAPGKERELVATISSGGRTYYADSVKGRFTISRDNAKNTVYLQMNSLKPEETAVYYCAAGYSYAQYSYPFLSFAFGYWGQGTQVTVSS | high polyreactivity
6 | QVQLVESGGGLVQAGGSLRLSCAASGSIFVRNVMGWYRQAPGKERELVAAISGSGGSTYYADSVKGRFTISRDNAKNTVYLQMNSLKPEDTAVYYCAAPRNLYGVYSYYYWGQGTQVTVSS | high polyreactivity
7 | QVQLVESGGGLVQAGGSLRLSCAASGSIFVRYDMGWYRQAPGKERELVAAISWNGGRTYYADSVKGRFTISRDNAKNTVYLQMNSLKPEDTAVYYCNAVSKGLGSGLDYWGQGTQVTVSS | high polyreactivity
8 | QVQLVESGGGLVQAGGSLRLSCAASGSIFVSNAMGWSRPAPGKDRELVAGINYSGGSTYYADSVKGRFTISRDNAKNTVYLQLTSLKPEDTAVYYCARRRPYQWPYNYWGQGTQVTVSS | high polyreactivity
9 | QVQLVESGGGLVQAGGSLRLSCAASGSIFVSNAMGWYRQAPGKERELVAAISGGRSTYYADSVKGRFTISRDNAKNTVYLQMNSLKPEDTAVYYCAKKGGHRTYGYDSWGQGTQVTVSS | low polyreactivity
10 | QVQLVESGGGLVQAGGSLRLSCAASGSIFVSNVMGWYRQSPGKERELVAAISSSGGRTNYADSVKGRFTISRDNAKNTVYLQMNSLKPEDTAVYYCAKAGRYANLPYGYWGQGTQVTVSS | high polyreactivity
11 | QVQLVESGGGLVQAGGSLRLSCAASGSIFVSYAMGWYRQAPGKERELVAAISRSGGRTYYADSVKGRFTISRDNAKNTVYLQMNSLKPEDTAVYYCAADYTKSSSPWPGYYWGQGTQVTVSS | high polyreactivity
12 | QVQLVESGGGLVQAGGSLRLSCAASGSIFVSYAMGWYRQAPGKERELVAAITRSGGSTYYADSVKGRFTISRDNAKNTVYLQMNSLKPEDTAVYYCAARSYLGAYRRYYWGQGTQVNVSS | high polyreactivity
13 | QVQLVESGGGLVQAGGSLRLSCAASGSIFVSYAMGWYRQAPGKERELVAAITSIGTRTYYADSVKGRFTISRDNAKNTVYLQINSLKPEDTAVYYCNAPRFWSRHGLRDYWGQVTQVTVSS | high polyreactivity
14 | QVQLVESGGGLVQAGGSLRLSCAASGSIFVTNAMGWYRQAPGKERELVAAIRGGGGSTYYADSVKGRFTISRDNAKNTVYLQMNSLKPEDTAVYYCNADRRGYLQSEMDYWGQGTQVTVSS | low polyreactivity
15 | QVQLVESGGGLVQAGGSLRLSCAASGSIFVTYALGWYRQAPGKERELVAVLTWGGGSTYYADSVKGRFTISRDNAKNTVYLQMNSLKPEDTAVYYCAKDSYYYRRDVTVDYWGQGTQVTVSS | low polyreactivity
16 | QVQLVESGGGLVQAGGSLRLSCAASGSIFVTYAMGWYRQAPGKERELVARITSGGSTYYADSVKGRFTISRDNAKNTVYLQMNSLKPEDTAVYYCAARRWLRYDLDYGGQGTQVTVSS | low polyreactivity
17 | QVQLVESGGGLVQAGGSLRLSCAASGSIFVTYAMGWYRQAPGKERELVASISWRGVSTRYADSVKGRFTISRDNAKNTVYLQMNSLKPEDTAVDYCAAVYRRTRSGIFDYWGQGTQVTVSS | high polyreactivity
18 | QVQLVESGGGLVQAGGSLRLSCAASGSIFVVNAMGWYRPAPGKERELVAAINWSDGSTYYADSVKGRFTISRDTAKNTVYLQLTSLKPEDTAVDYCAAEVPYFYFEGWNYDYWGQGTQVTVSS | high polyreactivity
19 | QVQLVESGGGLVQAGGSLRLSCAASGSIFVVYAMGWYRQAPGKERELVASIRTGGSTNYADSVKGRFTISRDNAKNTVYLQMNSLKPEDTAVYYCAAASWNCNRHYYVARYYYWGQGTQVNVSS | high polyreactivity
20 | QVQLVESGGGLVQAGGSLRLSCAASGSIFVVYAMGWYRQAPGKERELVAVITDDGSTYYADSVKGRFTISRDNAKNTVYLQMNSLKPEDTAVYYCAAEGAATPDFGSWYYYWGQGTQVTVSS | low polyreactivity
21 | QVQLVESGGGLVQAGGSLRLSCAASGSIFVWNAMGWYIQAPRKERELVAAISYTDGSTYYADSVKGRFTISRDNAKNTVYLQMNSMNPEDTAVYYCAASTLKDIYLWFRVDYWGQCTQVTVSS | low polyreactivity
22 | QVQLVESGGGLVQAGGSLRLSCAASGSIFVYNAMGWYRQAPGKERELVAAISQRGGSTYYADSVKGRFTISRDNAKNTVYLQMNSLKPEDTADYYCAAGPGDSGDDYWGQGTQVTVSS | low polyreactivity

Row | Sequence | polyreactivity (PSR sort gate)
23 | QVQLVESGGGLVQAGGSLRLSCAASGSIFVYNAMGWYRQATGKEREMVAVINKSGDTTYYADSVKGRFTISRDNAKNTVYLQMNSLKPEDTAVYYCNASGEVLAAVVSYDYWGQGTQVTVSS | low polyreactivity
24 | QVQLVESGGGLVQAGGSLRLSCAASGSIFVYYAMGWYRQAPGKERELVAAINSGSITKYADSVKGRFTISRDNAKNTVYLQMNSLKPEYTAVYYCAARYDNTYRTETSYPRYYSWGQGTQVTVSS | high polyreactivity
25 | QVQLVESGGGLVQAGGSLRLSCAASGSIFVYYTMGWYRQAPGKVRELVATITFRGNTYYADSVKGRFTISRDNAKNTVYLQMNSLKPEDTAVSYCAATRYGHRYYYRPYEYWGQGTQVTVSS | high polyreactivity
26 | QVQLVESGGGLVQAGGSLRLSCAASGSIFWGNAMGWYRQAPGKERELVADISGGDTYYADSVKGRFTISRDNAKNTVYLQMNSLKPEDTAVYYCAADVWQYFYPYGYYYWGLGTQVTVSS | high polyreactivity
27 | QVQLVESGGGLVQAGGSLRLSCAASGSIFWGYAMGWYRQAPGKERELVAAIRVSGGSTYYADSVKGRFTISRDNAKNTVYLQMNSLKPEDTAVYYCARDTWGGFSSADNYWGQGTQVTVSS | high polyreactivity
28 | QVQLVESGGGLVQAGGSLRLSCAASGSIFWIYAMGWYRQAPGKERELVATITRRGGSTYYADSVKGRFTISRDNAKNTVYLQMNSLKPEDTAVYYCATEPGYTFLTSYKYDYWGQGTQVTVSS | low polyreactivity
29 | QVQLVESGGGLVQAGGSLRLSCAASGSIFWLYAMGWYRQAPGKESELVAAIDSGDSTKYADSVKGRFTISRDNAKNTVYLQMNSLKPEDTAVYYCNASRRYHVRAPYDYWGQGTQVTVSS | low polyreactivity
30 | QVQLVESGGGLVQAGGSLRLSCAASGSIFWPYAMGWYRPAPGKERELVATISWNGGSTYYADSVKGRFTISRDNAKNTVYLQMNSLKPEDTAVYYCAAEVYFNQYGGMDYWGQGTQVTVSS | low polyreactivity
31 | QVQLVESGGGLVQAGGSLRLSCAASGSIFWPYAMGWYRQAPGKERELVAAISSSTGRTYYADSVKGRFTLSRDNEKNTVYLQMNSLKPEDTAVDYCAADIGTTSYRYYYWGQGTQVTVSS | high polyreactivity
32 | QVQLVESGGGLVQAGGSLRLSCAASGSIFWQYAMGWYRQAPGTERELVAAISSRGGSTYYADSVKGRFTISRDNAKNTVYLQMNTLKPEDTAVYYCAAHSVVRSYAARDSGYDYWGQGTQVTVSS | high polyreactivity
33 | QVQLVESGGGLVQAGGSLRLSCAASGSIFWRNAMGWYRQAPGKERELVAVISSGGRTYYADSVKGRFTISRDNAKNTVYLQMNSLKPEDTAVYYCAAQYHGGISQRLYYWGQGTQVTVSS | high polyreactivity
34 | QVQLVESGGGLVQAGGSLRLSCAASGSIFWRNTMGWYRQAPGKEREFVAAISSNGGGTYYADSVKGRFTISRDKAKNTVYLQTNSLKPEDTAVYYFAATAGGSYKLWYYYWGQGTQVTVSS | high polyreactivity
35 | QVQLVESGGGLVQAGGSLRLSCAASGSIFWRYAMGWYRQAPGKERELVATITSRGGSTYYADSVKGRFTISRDNAKNTVYLQMNSLKQEDTAVYYCAAGWLPKYGYWGQGTQVTVSS | low polyreactivity
36 | QVQLVESGGGLVQAGGSLRLSCAASGSIFWSNAMGWYRQAPGKERELVAASSSGGSTYADSVKGRFTISRDTAKNTVYLQMNSLKPEDNAVYDCNARDYSVGRNDYWGQGTQVTVSS | low polyreactivity
37 | QVQLVESGGGLVQAGGSLRLSCAASGSIFWSNAMGWYRQAPGKESELVATIDDDVGSTYYADSVMGRFTISRDNAKNTVYLQMNSLKPEDTAVYYCAADSVYYVIPYEYWGQGTQVTVSS | low polyreactivity
38 | QVQLVESGGGLVQAGGSLRLSCAASGSIFWSYAMGWYIQAPGTERELVAAITTDGGTNYADSVKGRFTISLDNAKNTVYLLMKSLKPDDTAVYYCAGDTDPNPQIDYTLTMDYWGQGTEVTVSS | low polyreactivity
39 | QVQLVESGGGLVQAGGSLRLSCAASGSIFWTYAMGWYRQAPGKEREFVAAITFNYGSTYYADSVKGRFTISRDTAKNTVYLQMNSVKPEDTAVYYCNADTWYYYNFWSYIEYDYWGQGTQVTVSS | high polyreactivity
40 | QVQLVESGGGLVQAGGSLRLSCAASGSIFWVNAMGWYRQAPGQVSELVAAINYSDGSTSYADSVKGRFTISRDNAKNTVYLQMNSLKPEDTAVYYCNAESFELMYYWGQGTQVTVSS | low polyreactivity
41 | QVQLVESGGGLVQAGGSLRLSCAASGSIFWVYAMGWYRQAPGKERELVAAISQSGGSTYYADSVKGRFTISRDNAKNTVYLQMNSLKPEYTAVYYCAAYVRGQNYDYWGQGTQVTVSS | high polyreactivity
42 | QVQLVESGGGLVQAGGSLRLSCAASGSIFWWNAMGGYRQAPGKERELVAAINWSTGRTYYADSVKGRFTISRDNAKNTVYLQMNSLKPEDTAVYYCAASFVGALGYDYWGQGTQVTVSS | low polyreactivity
43 | QVQLVESGGGLVQAGGSLRLSCAASGSIFWWYGMGWYRQAPGKEREFVADITSGGGTYYADSVKGRFTISRDNAKNTVYLQMNSLKPEDTAVYYCAADVRAYRFDYYFDYWGQGTQVTVSS | low polyreactivity
